Drawing on publication PMC12903857, this text covers Kd, fold stabilization with 22 (against DMSO) and fold stabilization with 23 (against DMSO) for one substance.

In test [1] the target is 15-mer A-RAF peptide. In words: fluorescence polarisation; fluorescence anisotropy; Kd of the 15-mer peptides, told apart by the paper from the appKd in the presence of DMSO. For orientation: In fluorescence polarisation assays a small probe gives low polarisation when free and higher when bound to something large.
A further test addresses 15-mer B-RAF peptide. In words: fluorescence polarisation; fluorescence anisotropy protein titration: 14-3-3σ titrated into 10 nM labeled peptide in the presence of a saturating concentration (100 μM) of a covalent compound, which is named in the quantity of each row; apparent.
The target of test [2] is 15-mer A-RAF peptide. In words: fluorescence polarisation; fluorescence anisotropy protein titration: 14-3-3σ titrated into 10 nM labeled peptide in the presence of DMSO; apparent.

In the case of “14-3-3σ (from UniProt P31947 1-248) (natural protein)”, the Kd with 15-mer A-RAF peptide [1] came to 8 µM. In addition, in the test with 15-mer B-RAF peptide, the fold stabilization with 22 (against DMSO) came out at 448 fold and the fold stabilization with 23 (against DMSO) was found to be 448 fold. Also, the Kd in the test with 15-mer A-RAF peptide [2] turned out to be 3 µM.
